Positions count from the first letter of the chain named.
T1: Human CD94 (human, UniProt Q13241 1-179)
T1 construct: also called hCD94
T1 sequence: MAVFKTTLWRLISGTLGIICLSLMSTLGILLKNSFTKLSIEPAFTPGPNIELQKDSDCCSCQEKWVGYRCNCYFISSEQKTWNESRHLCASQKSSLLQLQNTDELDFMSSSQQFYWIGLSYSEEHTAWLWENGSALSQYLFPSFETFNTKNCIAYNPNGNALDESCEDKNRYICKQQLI

T2: Human Clec7A (human, UniProt Q9BXN2 1-247)
T2 construct: also called hClec7A
T2 sequence: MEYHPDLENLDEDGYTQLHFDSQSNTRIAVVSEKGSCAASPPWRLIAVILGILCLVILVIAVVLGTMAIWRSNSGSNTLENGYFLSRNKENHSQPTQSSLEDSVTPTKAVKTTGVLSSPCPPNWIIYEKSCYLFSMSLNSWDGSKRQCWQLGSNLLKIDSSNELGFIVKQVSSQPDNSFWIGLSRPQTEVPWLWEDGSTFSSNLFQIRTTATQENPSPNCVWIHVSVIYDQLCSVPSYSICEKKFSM

T3: Human KLRF1 (human, UniProt Q9NZS2 1-231)
T3 construct: also called hKLRF1
T3 sequence: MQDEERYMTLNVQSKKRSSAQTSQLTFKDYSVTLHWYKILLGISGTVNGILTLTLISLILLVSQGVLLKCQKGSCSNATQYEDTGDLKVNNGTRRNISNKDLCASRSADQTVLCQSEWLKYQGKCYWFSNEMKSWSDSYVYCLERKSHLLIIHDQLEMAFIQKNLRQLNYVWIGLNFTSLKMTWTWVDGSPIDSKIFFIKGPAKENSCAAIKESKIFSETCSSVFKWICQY

T4: Human Clec5A (human, UniProt Q9NY25 1-188)
T4 construct: also called hClec5A
T4 sequence: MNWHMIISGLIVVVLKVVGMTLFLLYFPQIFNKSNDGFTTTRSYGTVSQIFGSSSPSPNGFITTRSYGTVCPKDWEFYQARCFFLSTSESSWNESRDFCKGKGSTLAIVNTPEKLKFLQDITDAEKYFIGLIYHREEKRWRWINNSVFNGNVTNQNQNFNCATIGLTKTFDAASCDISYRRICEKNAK

T5: Human KLRF2 (human, UniProt D3W0D1 1-207)
T5 construct: also called hKLRF2
T5 sequence: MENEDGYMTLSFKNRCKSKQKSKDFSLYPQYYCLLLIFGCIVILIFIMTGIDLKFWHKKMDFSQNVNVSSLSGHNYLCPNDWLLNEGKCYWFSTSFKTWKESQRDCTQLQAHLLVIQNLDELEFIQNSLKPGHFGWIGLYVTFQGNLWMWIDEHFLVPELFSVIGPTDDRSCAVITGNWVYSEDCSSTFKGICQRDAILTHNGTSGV

T6: Human KLRG1 (human, UniProt Q96E93 1-195)
T6 construct: also called hKLRG1
T6 sequence: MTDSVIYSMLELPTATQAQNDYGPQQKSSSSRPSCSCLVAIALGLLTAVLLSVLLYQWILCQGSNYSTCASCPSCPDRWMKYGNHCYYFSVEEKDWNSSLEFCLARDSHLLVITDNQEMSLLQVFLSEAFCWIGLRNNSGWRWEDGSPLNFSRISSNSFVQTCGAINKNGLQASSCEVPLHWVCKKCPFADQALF

T7: Human Clec10A (human, UniProt Q8IUN9 1-316)
T7 construct: also called hClec10A
T7 sequence: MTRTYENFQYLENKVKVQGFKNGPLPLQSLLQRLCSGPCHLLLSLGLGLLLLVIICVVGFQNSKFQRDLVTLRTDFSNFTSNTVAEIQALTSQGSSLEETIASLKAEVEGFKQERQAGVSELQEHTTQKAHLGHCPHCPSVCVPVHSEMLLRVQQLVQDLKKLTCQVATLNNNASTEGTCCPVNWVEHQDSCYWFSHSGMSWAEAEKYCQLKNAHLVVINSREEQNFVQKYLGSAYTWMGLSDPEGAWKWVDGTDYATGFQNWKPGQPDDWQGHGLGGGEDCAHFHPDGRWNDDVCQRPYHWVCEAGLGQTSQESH

T8: Human Clec12B (human, UniProt Q2HXU8 1-276)
T8 construct: also called hClec12B
T8 sequence: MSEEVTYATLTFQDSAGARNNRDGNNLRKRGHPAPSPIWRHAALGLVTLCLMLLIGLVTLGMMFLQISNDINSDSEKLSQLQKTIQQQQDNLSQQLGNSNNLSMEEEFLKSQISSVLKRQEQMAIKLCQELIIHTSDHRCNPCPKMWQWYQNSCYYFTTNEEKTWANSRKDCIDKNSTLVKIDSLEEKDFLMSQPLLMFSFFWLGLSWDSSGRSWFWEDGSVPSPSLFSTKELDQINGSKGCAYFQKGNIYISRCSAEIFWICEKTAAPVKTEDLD

T9: Human Clec4E (human, UniProt Q9ULY5 1-219)
T9 construct: also called hClec4E
T9 sequence: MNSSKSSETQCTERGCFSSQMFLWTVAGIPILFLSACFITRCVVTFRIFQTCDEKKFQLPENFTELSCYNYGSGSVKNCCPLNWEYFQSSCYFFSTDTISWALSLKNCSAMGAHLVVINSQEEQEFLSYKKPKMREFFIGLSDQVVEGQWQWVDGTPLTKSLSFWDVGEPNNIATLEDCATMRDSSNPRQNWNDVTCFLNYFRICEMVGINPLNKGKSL

T10: Human CD209 (human, UniProt Q9NNX6 1-404)
T10 construct: also called hCD209
T10 sequence: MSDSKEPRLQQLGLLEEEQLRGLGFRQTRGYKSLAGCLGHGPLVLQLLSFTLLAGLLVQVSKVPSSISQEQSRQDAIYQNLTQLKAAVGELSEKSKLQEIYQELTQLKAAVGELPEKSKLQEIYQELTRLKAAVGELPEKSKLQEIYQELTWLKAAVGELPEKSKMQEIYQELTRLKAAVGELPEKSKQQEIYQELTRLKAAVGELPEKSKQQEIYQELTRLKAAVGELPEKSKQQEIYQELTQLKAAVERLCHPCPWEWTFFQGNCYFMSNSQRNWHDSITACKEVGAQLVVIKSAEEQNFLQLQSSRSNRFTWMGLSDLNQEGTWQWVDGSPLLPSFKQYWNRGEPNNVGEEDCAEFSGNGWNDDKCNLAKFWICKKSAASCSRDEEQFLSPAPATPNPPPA

B1: anti-CD161 KW17 (antibody, V domains shown)
VH: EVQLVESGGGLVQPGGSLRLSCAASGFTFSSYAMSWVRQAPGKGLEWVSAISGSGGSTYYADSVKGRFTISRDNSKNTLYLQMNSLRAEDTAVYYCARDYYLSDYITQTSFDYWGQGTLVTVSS
VL: QSVLTQPPSVSGAPGQRVTISCTGSSSNIGAGYDVHWYQQLPGTAPKLLIYGNSNRPSGVPDRFSGSKSGTSASLAITGLQAEDEADYYCQSYDSSHTVFGGGTQLTVL
notes: Human, lambda light chain; scFv-Fc or full IgG not clear; also called KW17-Fc
B2: KW17.3.4 (antibody, V domains shown)
VH: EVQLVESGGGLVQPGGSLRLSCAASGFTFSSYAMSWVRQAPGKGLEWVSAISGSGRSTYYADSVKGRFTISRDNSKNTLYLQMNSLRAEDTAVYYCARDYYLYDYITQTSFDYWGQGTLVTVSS
VL: B1 VL with K68Q, D94N, S96G
B3: KW9.3.3 (antibody, V domains shown)
VH: EVQLVESGGGLVQPGGSLRLSCAASGFTFSSYAMSWVRQAPGKGLEWVSAISGSGGRTYYADSVKGRFTISRDNSKNTLYLQMNSLRAEDTAMYYCARGPGYMYLYGDSFFEYWGQGTLVTVSS
VL: DIQMAQSPSSLSASVGDRVTITCRASQGISSYLNWYQQKPGKAPKLLIYAASSLQSGVPSRFSGSGYGTDFTLTISSLQPEDFATYYCQQSYSTPLTFGQGTKVEIK

Biological target: T11, Human OLR1 (human, UniProt P78380 1-273)
T11 construct: also called hOLR1
Assay: flow, Jurkat

Binder	binding result
B1	no binding (tested: 100 nM)
B2	no binding (tested: 100 nM)
B3	no binding (tested: 100 nM)

Biological target: T1, Human CD94
Assay: flow, Jurkat

Binder	binding result
B1	no binding (tested: 100 nM)
B2	no binding (tested: 100 nM)
B3	no binding (tested: 100 nM)

Biological target: T2, Human Clec7A
Assay: flow, Jurkat

Binder	binding result
B1	no binding (tested: 100 nM)
B2	no binding (tested: 100 nM)
B3	no binding (tested: 100 nM)

Biological target: T3, Human KLRF1
Assay: flow, Jurkat

Binder	binding result
B1	no binding (tested: 100 nM)
B2	no binding (tested: 100 nM)
B3	no binding (tested: 100 nM)

Biological target: T4, Human Clec5A
Assay: flow, Jurkat

Binder	binding result
B1	no binding (tested: 100 nM)
B2	no binding (tested: 100 nM)
B3	no binding (tested: 100 nM)

Biological target: T5, Human KLRF2
Assay: flow, Jurkat

Binder	binding result
B1	no binding (tested: 100 nM)
B2	no binding (tested: 100 nM)
B3	no binding (tested: 100 nM)

Biological target: T6, Human KLRG1
Assay: flow, Jurkat

Binder	binding result
B1	no binding (tested: 100 nM)
B2	no binding (tested: 100 nM)
B3	no binding (tested: 100 nM)

Biological target: T12, Human Clec9A (human, UniProt Q6UXN8 1-241)
T12 construct: also called hClec9A
T12 sequence (Q6UXN8 whole entry): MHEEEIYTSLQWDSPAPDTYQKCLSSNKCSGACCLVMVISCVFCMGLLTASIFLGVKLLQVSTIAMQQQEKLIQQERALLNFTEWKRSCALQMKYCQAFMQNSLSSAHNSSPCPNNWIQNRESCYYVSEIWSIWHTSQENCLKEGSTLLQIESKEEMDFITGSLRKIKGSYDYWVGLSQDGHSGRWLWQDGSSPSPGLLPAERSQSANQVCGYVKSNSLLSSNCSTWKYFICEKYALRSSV
Assay: flow, Jurkat

Binder	binding result
B1	no binding (tested: 100 nM)
B2	no binding (tested: 100 nM)
B3	no binding (tested: 100 nM)

Biological target: T7, Human Clec10A
Assay: flow, Jurkat

Binder	binding result
B1	no binding (tested: 100 nM)
B2	no binding (tested: 100 nM)
B3	no binding (tested: 100 nM)

Biological target: T8, Human Clec12B
Assay: flow, Jurkat

Binder	binding result
B1	no binding (tested: 100 nM)
B2	no binding (tested: 100 nM)
B3	no binding (tested: 100 nM)

Biological target: T9, Human Clec4E
Assay: flow, Jurkat

Binder	binding result
B1	no binding (tested: 100 nM)
B2	no binding (tested: 100 nM)
B3	no binding (tested: 100 nM)

Biological target: T10, Human CD209
Assay: flow, Jurkat

Binder	binding result
B1	no binding (tested: 100 nM)
B2	no binding (tested: 100 nM)
B3	no binding (tested: 100 nM)
